Measured values as given in patent US20060223158.

Experiments:
[1] = test system: Cdk5 purified from insect Sf9 cultures
[2] = test system: p35-His6 purified from insect Sf9 cultures

Chain of CK1α (New England Biolabs) (P48729 2-337): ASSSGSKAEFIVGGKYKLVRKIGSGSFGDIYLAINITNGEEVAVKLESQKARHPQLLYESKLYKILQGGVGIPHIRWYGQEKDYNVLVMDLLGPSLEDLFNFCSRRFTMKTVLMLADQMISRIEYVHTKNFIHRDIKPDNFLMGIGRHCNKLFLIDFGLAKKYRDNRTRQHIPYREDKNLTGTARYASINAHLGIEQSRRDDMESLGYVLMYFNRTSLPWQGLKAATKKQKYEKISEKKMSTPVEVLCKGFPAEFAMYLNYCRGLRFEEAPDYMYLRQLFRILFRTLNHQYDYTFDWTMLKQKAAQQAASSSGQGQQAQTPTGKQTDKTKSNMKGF

CK1α (New England Biolabs)
32P incorporation, in vitro phosphorylation, SDS-PAGE and autoradiography [1]: phosphorylated Cdk5 catalytic subunit to a much lesser extent
32P incorporation, in vitro phosphorylation, SDS-PAGE and autoradiography [2]: CKI was able to efficiently phosphorylate p25
stoichiometry of phosphorylation in vitro [2]: phosphorylation of p25 to approximately 2 mol/mol
